Test results: patent US20240069033A1, “METHOD FOR SCREENING FOR CANDIDATE MOLECULE CAPABLE OF FORMING COMPLEX IN CONJUNCTION WITH PLURALITY OF TARGET MOLECULES” (Chugai Seiyaku Kabushiki Kaisha, priority 2020, published 2024)
No end group written: not given here.

How the values were obtained:
splitNanoluc1-8 = molecular target: T1, splitNanoluc1-8 (Oplophorus gracilirostris, UniProt Q9GV45, A31E/A60N/A81I/D135N/F58L/F95D/G42A/G62A/G78A/G94A/G98A/H120P/I103V/I117V/I134L/K70R/L54V/L73R/L99Q/M102E/N171T/P142E/Q151K/Q38E/Q45L/V71I/Y165I); test: Complementation assay of split Nanoluc using mRNA display (pull-down with biotinylated splitNanoluc1-8, qPCR); type: binding; settings: for Recovered nucleic acid amount (molecules): 33 nM Display molecule + 1 μM biotinylated splitNanoluc1-8, room temperature 1 hour, streptavidin pull-down, TEV elution, qPCR; for Recovery rate (%): apparent recovery rate corrected with display efficiency; for Apparent recovery rate (%): recovered/input nucleic acid amount
T1 construct: made in house
T1 sequence (Q9GV45 other isoform, or with tags, fused parts or gaps with the stated changes): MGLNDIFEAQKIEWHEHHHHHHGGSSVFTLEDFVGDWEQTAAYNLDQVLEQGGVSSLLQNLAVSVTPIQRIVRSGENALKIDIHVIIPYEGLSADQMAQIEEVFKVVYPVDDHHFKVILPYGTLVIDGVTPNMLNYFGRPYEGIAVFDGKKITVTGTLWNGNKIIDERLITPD
Procedure: Thus, each binding ability of splitNanoluc-9 (SEQ ID NO: 66), splitNanoluc-10 (SEQ ID NO: 67), and splitNanoluc9-10 fusion peptide (SEQ ID NO: 65) to splitNanoluc1-8 (SEQ ID NO: 85) was evaluated.
Display molecules in which mRNA and a peptide are linked were prepared, and the recovery rate with biotinylated splitNanoluc1-8 was examined.

[1] = tested on: anti-ubiquitin antibodies (Mouse IgG1 monoclonal antibody; clone name FK2); test: Complementation assay of splitUbiquitin using mRNA display (anti-ubiquitin antibody beads, qPCR); type: binding
Text: As described above, screening a library for a candidate molecule capable of forming a complex with a plurality of target molecules requires a system that suppresses the recovery rate of a test molecule that forms a complex with only one target molecule. […] Ubiquitin I13A variants were used in the experiment. In this Example, the ubiquitin N-terminal fragment to which a GS linker is attached at the C-terminus is referred to as splitUb(N), the ubiquitin C-terminal fragment to which a GS linker is attached at the C-terminus is referred to as splitUb(C), and the protein in which splitUb(N) and splitUb(C) are linked by a GSGS linker and to which a GS linker is attached at the C-terminus is referred to as splitUb(N-C).
To simultaneously evaluate the interactions of the ubiquitin N-terminal fragment and the C-terminal fragment when they are independent, the conditions of mixing the display molecule of splitUb(N) and the display molecule of splitUb(C) at 1: 1 were reacted in the same way.

Row | Substance | Recovered nucleic acid amount (molecules) (splitNanoluc1-8) | Recovery rate (%) (splitNanoluc1-8) | Apparent recovery rate (%) (splitNanoluc1-8) | Recovered nucleic acid amount (molecules) ([1]; anti-ubiquitin antibody (FK2) magnetic beads, room temperature 1 hour, qPCR) | Recovery rate (%) ([1]; apparent recovery rate corrected with display efficiency) | Apparent recovery rate (%) ([1]; recovered/input nucleic acid amount)
1 | splitNanoluc-9: mRNA Display molecule of Nanoluc 9th strand with GS linker and TEV sequence (SEQ ID NO: 66) (MGSMLFRVTINSGSGSGSGSENLYFQGKK; also: mRNA display conjugate) | 2.53E+06 | 0.049 | 0.008 | – | – | –
2 | splitUb (N): mRNA Display molecule of ubiquitin (I13A) N-terminal fragment with GS linker (SEQ ID NO: 45) (MMQIFVKTLTGKTATLEVEPSDTIENVKAKIQDKEGIPGSGSGSGSKK; also: mRNA display linkage) | – | – | – | 1.63E+10 | 1.040 | 0.931
3 | splitNanoluc-10: mRNA Display molecule of Nanoluc 10th strand with GS linker and TEV sequence (SEQ ID NO: 67) (MVSGWRLFKKISGSGSGSGSENLYFQGKK; also: mRNA display conjugate) | 5.04E+06 | 0.016 | 0.011 | – | – | –
4 | splitNanoluc9-10: mRNA Display molecule of Nanoluc 9th and 10th strands linked by GS linker, with TEV sequence (SEQ ID NO: 65) (MGSMLFRVTINSGGGSGGGGSGVSGWRLFKKISGSGSGSGSENLYFQGKK; also: mRNA display conjugate) | 3.45E+09 | 33.155 | 12.632 | – | – | –
